Reference: patent publication US12552837B2, “Bicyclic peptide ligands with detectable moieties and uses thereof” (BicycleRD Limited, priority 2017, dated 2026)
*1 amine or outer side, *2 acyl side, *3 side chain or, on linkers, in order; H or OH if unused. Where a SMILES comes first, the peptide text is derived from it. Bridges are numbered along the chain shown (N, C = ends). [ ]: non-standard residue; d: D form. The star is where a group is joined. DOTA = O=C(O)CN1CCN(CC(=O)O)CCN(CC(=O)*)CCN(CC(=O)O)CC1; 1Nal = N[C@@H](Cc1cccc2ccccc12)C(=O)O; TBMB = c1c(C[*:1])cc(C[*:3])cc1C[*:2]; Tle = CC(C)(C)[C@H](N)C(=O)O

Test system: xenograft tumor
Experiment: μPET imaging with 68Ga-labelled Bicycle peptides in xenograft mice
Type: in vivo
Details: 150 pmoles
Experimental: General method for μPET imaging: the mice were anaesthetized (2% sevoflurane, Abbott), placed into the small animal PET scanner (Inveon PET, Siemens) and injected with 68Ga-labeled Bicycle peptides. A 20 min transmission scan, a 50 min dynamic scan and a static scan from 100 to 120 min p.i. were performed. Images were reconstructed iteratively using the space alternating generalized expectation maximization method (SAGE, 16 subsets, 4 iterations) applying median root prior correction and were converted to standardized uptake value (SUV) images. Quantitation was done using a ROI (region of interest) technique and expressed as SUVmean.
General method for radiolabeling with Ga-68: ^68Ga (half-life 68 min; β^+ 89%; Eβ+max. 1.9 MeV) was obtained from a in house ^68Ge/^68Ga generator based on pyrogallol resin support. 1 GBq ^68Ga was eluted using 5.5 M HCl. The activity was trapped on a small anion-exchanger cartridge (AG1X8, Biorad, Richmond, CA, USA) as [^68Ga]GaCl4^−. The radiogallium was eluted from the cartridge in a final volume of 300 μL ultrapure water (Merck, Darmstadt, Germany) as [^68Ga]GaCl3.
1 nmol Bicycle peptide in 1 μL DMSO was added to a mixture of 50 μL 0.05 M HEPES, 0.1% Tween-20, and 80 μL [^68Ga]Ga^3+ eluate (˜200 MBq). The pH of the labelling solution was adjusted to 4.2 using 30% NaOH. The reaction mixture was incubated at 98° C. for 10 minutes. The radiochemical yield (RCY) was determined using reversed-phase high performance liquid chromatography (RP-HPLC; Chromolith RP-18e, 100×4.6 mm; Merck, Darmstadt, Germany). The analytical HPLC run was performed using a linear A-B gradient (0% B to 100% B in 6 min) at a flow rate of 4 mL/min. Solvent A consisted of 0.1% aqueous TFA and solvent B was 0.1% TFA in CH3CN.
For μPET imaging, the labelling reaction mixture was diluted in injection buffer (0.25 M Na-Acetate 0.05% Tween-20 pH 7) by a factor of 6 to obtain 150 pmoles in 100 μL injection buffer. The anaesthetized mouse (2% sevoflurane, Abbott) was injected with 100 μL of ^68Ga-labelled I-23 (˜25 MBq) and placed in a small animal PET scanner (Inveon PET, Siemens). The imaging was performed 60 min post-injection and included a 15 min transmission scan before injection and a 60 min emission scan post-injection. Scans from μPET imaging were reconstructed iteratively using the space alternating generalized expectation maximization method (SAGE, 16 subsets, 4 iterations) applying median root prior correction and were converted to standardized uptake value (SUV) images. Quantitation was accomplished using an ROI (region of interest) technique and expressed as SUVmean.
The radiolabelling with Ga-68 was done as described before. […] Quantitation was accomplished using an ROI (region of interest) technique and expressed as SUVmean. […]

SMILES: C[C@H](NC(=O)CN1CCN(CC(=O)O)CCN(CC(=O)O)CCN(CC(=O)O)CC1)C(=O)N[C@H]1CSCc2cc3cc(c2)CSC[C@H](NC(=O)[C@@H](C)NC(=O)[C@H](Cc2cccc4ccccc24)NC(=O)[C@H](CCC(=O)O)NC(=O)[C@H](CC(N)=O)NC(=O)[C@@H](C)NC1=O)C(=O)N[C@@H](CCC(=O)O)C(=O)N[C@@H](CC(=O)O)C(=O)N[C@@H](Cc1ccccc1)C(=O)N[C@@H](Cc1ccc(O)cc1)C(=O)N[C@@H](CC(=O)O)C(=O)N[C@@H](C(C)(C)C)C(=O)N[C@H](C(N)=O)CSC3 [I-23] ({DOTA}-AC[dA]NE[1Nal][dA]CEDFYD[Tle]C-NH2; linker 2-8-15 via TBMB)
- time post injection from which high imaging contrasts are seen: 20 min
- tumor uptake in μPET images: MMP-14-selective tumor uptake
